Measured values reported in the DeepSol protein solubility set.

Assay: soluble on expression in E. coli; label from the status in PepcDB or PDB records

Sequence	soluble on expression in E. coli
MGSDKIHHHHHHMNLRQLEYFVTLSETLSFTKTAQKFFISQTAVTKQIKLLENTLDTKLFNRNKHYVELTPAGNVFLMEAKAILLRVEEATERVHLTTIGFVGLLRIGFIKGYEKTAFSDLIFQLYNKYPNISITFFRGTESELYEKVLNSELDIVFNSVKPKNIDKTLEMKLIDKYPLKVVVHPTHPLAARKSVRFEELRGETIFKYNDGQDIEVTLLMVSANMGIAVMPSYCVRYLSQSQNLMIIAVENNNFYVDIAAVWNKENNNPALLRVLQIIKEAEQ	not soluble
MRFITETELRDLYKAEPFTAYTLEPRTKLTPEARQFLVDRGIKLAEAQDCKSKSTGNGKSGTEQESWNVLRLRRRMESLESLFLMVGANLLSGGSTVLAEEVFALGRCFSEVKKTAWEQTSPVNLQFQDWSEAEMKNCSTYLGKHFDITEFHVRTENGAAIASLNHLRATLRELESAVLEAYWDEEFNVCSRQDLIEKINLIMNILCVMIWKCLGGQQCKT	not soluble
TAGFYINSEISDYFWIKTEFNYVNRGYTHKEAGKTLKTNYYCIDVYPVTPAFHYKGAQIFAGPSVTLLVASNRDTLIGGEVKKIADNKLDGINRYDIGIMAGVEYEFNFGLNIGVRMVRGFTSLYEPVNSIQTQWFNQTYLFTLGYSI	not soluble
MSTVIKGGTIVTADLTYKADVKVEGGRIVEIGPNLSGAETLDATGCYVMPGGIDPHTHLEMPFMGTYSSDDFESGTRAALAGGTTMVVDFALPSPGQSLLEALTMWDNKSTRANCDYSFHMAITWWGEQVFNEMETIVKDKGINTFKHFMAYKGALMVDDDEMFSSFQRCAALGALPLVHAENGDVVAQLQAKLLAEGNSGPEAHAYSRPAEVEGEAANRAIMIADMAGCPVYIVHTSCEQAHEAIRRARAKGMRVFGEPLIQHLTLDETEYFDKDWDHAARRVMSPPFRNKLHQDSLWAGLASGSLQVVATDHCAFTTEQKRFGVGDFTRIPNGTGGLEDRMPMLWTYGVATGRITMNEFVAVTSTNIAKILNIYPKKGAILVGADADLVVWDPKRSKTISAKTQQSAIDYNVFEGKTVTGLPRFTLTRGVVSIEEGTVKTQEGHGEFVRRDPFPAVSTALSTWKEVTAPRAVQRSGIPASGVHHHHHH	soluble
MSLAELNFKAIEEKWQKRWLEAKIFEPNIRDKPKEKKFYITVAFPYLSGHLHVGHARTYTIPDVIARFKRMQGYNVLFPMAWHITGSPIVGIAERIKNRDPKTIWIYRDVYKVPEEILWTFEDPINIVKYFMKAAKETFIRAGFSVDWSREFYTTSLFPPFSKFIEWQFWKLKEKGYIVKGAHRVRWDPVVGTPLGDHDLMEGEDVPILDYIIIKFELRENGEVIYLPAATLRPETVYGVTNMWVNPNATYVKAKVRRKDKEETWIVSKEAAYKLSFQDREIEVIEEFKGEKLIGKYVRNPVSGDEVIILPAEFVDPDNATGVVMSVPAHAPFDHVALEDLKRETEILEKYDIDPRIVENITYISLIKLEGYGDFPAVEEVNKLGIKSQKDKEKLEQATKTIYKAEYHKGIFKVPPYEGKPVQEVKEAIAKEMLEKGIAEIMYEFAEKNVISRFGNRAVIKIIHDQWFIDYGNPEWKEKARKALERMKILPETRRAQFEAIIDWLDKKACARKIGLGTPLPWDPEWVIESLSDSTIYMAYYTISRHINKLRQEGKLDPEKLTPEFFDYIFLEEFSEDKEKELEKKTGIPAEIIHEMKEEFEYWYPLDWRCSGKDLIPNHLTFFIFNHVAIFREEHWPKGIAVNGFGTLEGQKMSKSKGNVLNFIDAIEENGADVVRLYIMSLAEHDSDFDWRRKEVGKLRKQIERFYELISQFAEYEVKGNVELKDIDRWMLHRLNKAIKETTNALEEFRTRTAVQWAFYSIMNDLRWYLRRTEGRDDEAKRYVLRTLADVWVRLMAPFTPHICEELWEKLGGEGFVSLAKWPEPVEEWWNETIEAEEEFIRSVMEDIKEIIEVAKIENAKRAYIYTAEDWKWKVAEVVSEKRDFKSSMEELMKDSEIRKHGKEVAKIVQKLIKERTFDVKRINEEKALREAKEFMEKELGIEIIINPTEDKGGKKKQAMPLKPAIFIEEGHHHHHH	not soluble
MKKYFLGDQPTTLDASAFGFLINTIACPIESPLKEYGLSKENLGDYIDRIKMQYYPDLQLEHHHHHH	not soluble
MAEAGDENLYAAARDIARALGKDPSAAGDILQILSGYGASGNRGGDPRPTPSRGGSNVNFDRALTSLERQISSYIVEDRPIWSDPVDSRTFLDSVDELLAIAGDLRSMAGDKSVAVCQSRADELIQQVMFRLQEEFGFVMDRAPDSFDSDDEFPGEEDNDTSDGVIVARPITDYKIVIEALQSSVIGDLNAIAVRMVAGGFAKECSRVYSSRRREFLEESLSRLHLRGLSMEEVQESPWQDLEDEIDRWIKAVTLIFHVFFPSERLLCDRVFSDLPVSSVTDLSFMEVCRGTTTQLLNFADAIALGSRLPERLFKVVDLYEAMQDLIPKMETLFSDRYCSPLRHEALAIHKRLGEAIRGIFMELENLIRRDPPKTAFPGGGIHPITRYVMNYLRAACKSRQSLEQILDQTGNETGSDTRPLSVQIIWVLELLESNLEGKKRTYRDPSLCFLFMMNNDKYILDKAKDNELGLVLGEDWIVKHAAKLRQYHSNYRRSSWNQVVGLLRTDGPYPKLVENLRLFKSQFDEVCKVQSQWVVSDGQLREELRSSVAGIVSPAYSNFIRRLKESPEINGRRGEPFIPYTVEDVEFIIKRLFKESSS	soluble
GPGSMIGAPWPPEAVFGNTVDRVASPAPVPERKISIADQLHLPLSRFVEKMSWGEKRRVQILHGMLYPATVYLLDECSTDIDVAERRTVLELVRQECEAKDGCCVYATHIFDGIEGWATHLLLMEGGRVVDFKAVEKLTLPLEDYALQFMSKRAHAARGVDGVAAASLSHGSSAAISTTS	soluble
MASDRKRQIIEAAAQSFAAFGYKATTMEQIAKLANVGKGTIYTFFKSKEELLDEIVSGLIMEIKAEAELAMDSSLPFSENVHRALYRILEFRQRHQLTAKLLQEVRNIGTVAVQEVLAKLDRAMVEFIRQKIDAAVEKGEIRPCNSEITAFLMLKTYIALIVDWEKDHEPLTKEQIAELFTLYFLQGLSR	not soluble
GPGSMLKRSVSAAARKAGADTLAAAPAAGQQPPSNPLLPYALRRAAACEMLYGGSRVQYLVQPPFTLHKIRSENLPPPSLYAERHDLGLEMQLPRDMHVYNSINMAIQRQVGGDSSTLDGEQQQLQGGHADGFDMGAFFTEQHHPERHHNSSLPYAKHDTNNVLAMRLFPVNVGVRARTEAIRIRTDDCLQRLRDADLCAKMRLPLEHPLPLSRRSQYAAIHRVRQERCYDAPTEAAGERAAAAAEEASRTAHLRGAAAHPPPSELSIVTRPVDRLGSHSGSSAAACTADADHLSFPVHPFAAAAVSSGCHSARSGSAARLASQRWLPLQTLKPMGHNWSAATRSSGVRGPHMQLMQERLDQKGFGWKRKSRSLWQQDVATAGFRPHRYF	soluble
MNNKKINFGCCNWTRDAMKWRQRFEAADVTWVSRTNNGPADLLAKHRLPDNCSFQYHYYVPPFIVSALHCNHS	soluble
MGSDKIHHHHHHMSIDNVSGTSSNTGNVNGSKRAAGSGATETGQSVKGSSNLGKDEFLKLLVAQLKNQDPMSPQQNGEFIAQLAQFSTVEGVQSLNKSMESILSNYQSSQALQASSLVGRKVIVATDKSVVDTKDTFKASLNLPVSSSNVWVNVYDDKGTVVNRINLGQQAAGSVSFMWDGKDSSGNIMPPGTYKFEAQTSIDGKTYGLQTYLPANVDSVTLGQNGGELMLNLAGLGSIALSKVQIIGQ	not soluble
GATCLSQYCADKARDGVCDEACNSHACQWDGGDCSLTMENPWANCSSPLPCWDYINNQCDELCNTVECLFDNFECQGNSKTCKYDKYCADHFKDNHCNQGCNSEECGWDGLDCAADQPENLAEGTLVIVVLMPPEQLLQDARSFLRALGTLLHTNLRIKRDSQGELMVYPYYGEVAGSKVFLEIDNRQCVQDSDHCFKNTDAAAALLASHAIQGTLSYPLVSVVSESLTPERTQ	soluble
MGSDKIHHHHHHMWLSSEFNRMAEKTFKAYEPDDAFFSTLLYGPEGVGKSTLLVKCCQRLKEKKTILYIDAQDFVKNYAFAAQEGTLSQFRLRLRTPGVLIMDHIEVLKGKTRSIEEFYHTYEALFQRNGRIICGFRGDPSQLGFLGEKLSSRLRGGLVVPILQPTPEDMLNYLRQMAYGKFLIVEDLVLELMAEEAANFPEAQSLMNGFIQFANRTDSALDHDALLLYLQERRYQEGLRPSPQNIIQKVAELTGVAAAAIYSTTRTPEVRQARQLAIYGIRSLSRLSYPEIGASLNKSHSSIMKSYQQFQEAVQKNPELREMLESLVKYFNSPDDEKTER	not soluble
MKRPHGYQITSLRADKYGGYYAANFVGNEILYFDVNNNVNALVKDGFSYLKSPYDVIEANNLLYVTLYSSDEIGVYDKVLGVKRKSIGNKGTKDGELLAPQYMAIDKRNYIYVSEWGNKRVSKFGLEGDFILHFGSRTSGYKGLLGPTGVTYLNENIYVADSLRNTIEVFDTSGNHLYSVFTSIEGIEGLSSDFVGNNVIVSSKDGVYKYSIAKKTITKILKADKMNSKISSSILDANNQMIVSDFNNAKVSVYKSDASLYDSLEHHHHHH	soluble
MSEWRGFNRKGNTMKIRPGRHNAPDFPHGAAVTIGNFDGVHLGHKHILQKLRLEADARGLPVVAVVFEPQPKEFFALRTGKTPPCRISPLRTKLELLEGTGCVDAAWVLRFDRNFSEISAQAFIDRLLRQTLNTRYLLVGDDFRFGAGREGCFELLAQQPDMQTERTPSVIVEDIRTSSTAVRQALSDGNLAYAKKLLGHDYVLGGRVVHGRKLGRTLNAPTANIRLPGHRYALGGVFVVEADGAFGTRRGVASFGFNPTVDGGCSQKLEVHLFDFQGDLYGQRLNVRFLHKLRDEEKFDGMEELKRRIEADMEAAKCW	not soluble
MRLSEAWAERKKNLSCQRGGHGAIITSITSFSEDFMTTMPAAEPVDAAERRAISPVVVYPNGTLEAPDLARLVQAKNGMEKIDEVIIPPRGGRTFTVPKGHFFRIVSIEGPQVGDLNLWNAHDLNERFFSGKTRALHATHVSVGNRLWSNLPSLRPMATITHDTLSWYGFDEDGGGVHDVIGTRCDPYTNKLLSGGDYHHCCHSNLTNALASARGLSFREAEPHVHDVLNVFMCTGFTRDTHQYFMKASPVRPGDYLELFAEIDLIGALSACPGGDCSATHSSDMAACYPLKVEIFRPDMAVLVGWPWPDRNAYRPVELEHHHHHH	not soluble
MSTTGSAPPNSKLKSVEDTDDDRTLAEDDQNDQNSGSMDHRFERIKVTLMMTQGKKFGLGIVSVHQRILVCKVENESLVAGVLKYGDQIIEINKKNVLNKIDCKKRLMQCLKDKGQVDIIIVRPKTADAVTMIEQEIQLSQQPSTTAQPKIN	not soluble
MAHHHHHHMANNNMDDINLECENDNDNKISSEKRLVDEIIENNIEEIKKKEKDNKEKDNKEKDNKEKDIMFNIKNGLCDLEKTLDGEGYAYSNLTCRKKGIDFIPKSITRYIHLKYINLSHNNINDLVHLYFLPNIIFLDVSYNMLKEIVELKKEYLKNCIYINLSHNLISHMNNIFLKNLLEFNISYNTINNINIYISNTIRILNLSNNNIKNINFKNKLNNLLDLDISFNPIENLDFHTLMPNLVVLRINDNSTISMDKLNNLNNFKCLQSLFMQNYLYFKDISYKDVKEILLQNSKDIHLLKFNGNRLNKKTDHIEQADVNK	soluble
